Measured values from PMC8946150, “Microsphere Peptide-Based Immunoassay for the Detection of Recombinant Bovine Somatotropin in Injection Preparations” (Biosensors, 2022).
Residue numbers refer to the chain shown, from its start.

B1: rbST: 191 amino acid long protein hormone; rbST protein standard from NHPP (Dr. Parlow) (protein, UniProt P01246 27-217, looked up)
Somatotropin: AFPAMSLSGLFANAVLRAQHLHQLAADTFKEFERTYIPEGQRYSIQNTQVAFCFSETIPAPTGKNEAQQKSDLELLRISLLLIQSWLGPLQFLSRVFTNSLVFGTSDRVYEKLKDLEEGILALMRELEDGTPRAGQILKQTYDKFDTNMRSDDALLKNYGLLSCFRKDLHKTETYLRVMKCRRFGEASCAF
B2: eST: equine somatotropin from Bresagen (protein, UniProt P01245 27-216, looked up)
Somatotropin: FPAMPLSSLFANAVLRAQHLHQLAADTYKEFERAYIPEGQRYSIQNAQAAFCFSETIPAPTGKDEAQQRSDMELLRFSLLLIQSWLGPVQLLSRVFTNSLVFGTSDRVYEKLRDLEEGIQALMRELEDGSPRAGQILKQTYDKFDTNLRSDDALLKNYGLLSCFKKDLHKAETYLRVMKCRRFVESSCAF
B3: pST: Porcine Somatotropin from Sigma-Aldrich (protein, UniProt P01248 27-216, looked up)
Somatotropin: B2 Somatotropin with M72V, L91F, R113K

Assays:
MAb 4H12 [1] = assay: MIPA binding of MAb 4H12 to peptide- or rbST-coupled microspheres; details: peptide or protein coupled to microspheres, MAGPIX read-out
Method: (§1) Microsphere preparation was executed according to Bremer et al. with the exception that Magplex® microsphere sets instead of seroMAP microspheres were used. During the procedure, microspheres were trapped using a magnet (1 min) and after removal of the supernatant, trapped microspheres were resuspended by vortexing (1 min). The peptides pep, pep-K, pep-peg, pep-aca and rbST standard were coupled to the different internally dyed microsphere sets, i.e., microsphere set numbers 012, 043, 029, 038 and 064, respectively (Figure 2). The internal dye gives the microsphere set a unique spectral signature, and consequently, a unique read-out region. For each microsphere set, 2.5 × 10^6 microspheres were covalently coupled with a two-step carbodiimide reaction using 500 μL of 100 µg mL^−1 peptide in boric acid solution (100 mM boric acid, 1M NaCl, adjusted to pH 8.3 with NaOH), and 100 µg mL^−1 rbST in MES buffer (50 mM MES pH 5.0). After coupling, the microspheres were stable for over 1 year when stored in a blocking buffer (PBS, 0.1% BSA, 0.02% Tween-20 and 0.05% NaN3) at 2–8 °C in the dark until use, with the exception for the microspheres measured with XPS, which were stored in Milli-Q water until use.
(§2) In this procedure, all dilution and washing steps were executed using PBST containing 0.1% BSA. In total, 100 μL of rbST, eST, pST and hST standard solution or injection preparation extract were added to a low bind 96-well microtiter plate. Next, 10 μL of 20-, 2-, 2-, 1- and 0.7 ng mL^−1 antibody for microspheres coated with, respectively, pep, pep-peg, pep-aca, k-pep and rbST and microspheres (10 μL diluted suspension containing about 1250 microspheres per microsphere set) were added to each well. The microtiter plate was incubated for 20 min on a microtiter plate shaker to allow competition between the immobilized rbST epitope peptides or protein on the microspheres and the somatotropin (ST) present in the solution for the available antibody binding sites. After incubation, the microspheres were trapped by a magnet and washed twice. After washing, a 125 μL, 625-times diluted PE labeled Goat anti Mouse antibody was added and incubated for 20 min on a microtiter plate shaker. After this incubation step, microspheres were trapped with a magnet, supernatant removed and 125 µL PBST containing 0.1% BSA added. The plate was briefly mixed on the microtiter plate shaker before measuring on the imaging planar array analyzer (MAGPIX).

MAb 4H12 [2] = assay: Epitope mapping of rbST for MAb 4H12 (Pepscan, ELISA-type read out); type: binding; details: all four epitope designs (sets 1-4: linear 15-mers, double-Ala, α-helical loop mimics)
Excerpt: The entire sequence of rbST (Figure 1A) was epitope mapped for antibody 4H12 by Pepscan Presto BV (Lelystad, The Netherlands), as described before. Briefly, the rbST sequence was derived from the endogenous bST sequence by replacing the N-terminal alanine (Ala) with a methionine (Met) residue. With this rbST sequence, four sets of peptides were produced and used to determine the binding epitope of MAb 4H12: (i) linear peptides of 15 amino acids in length with an offset of one amino acid (set 1), (ii) linear peptides similar to set 1, with the amino acids on place 10 and 11 replaced by alanine (Ala); a native Ala present on place 10 and/or 11 was replaced by glycine (Gly) (set 2), (iii) α-helical loop mimics of 21 amino acids in length with an offset of one amino acid and cysteine residues on place 1 and 5 to enable connection with an α-helix-inducing mP2 chemical linkage of peptides onto scaffolds (CLIPS, set 3) and (iv) α-helical loop mimics similar to set 3, with the two Cys residues placed on amino acid numbers 1 and 8, which were also linked with mP2 CLIPS (set 4). Binding of Mab 4H12 to the described peptides is quantified using an ELISA-type read out.
Figure 1 Schematic representation of the four epitope mapping approaches to identify peptide-based mimics of recombinant bovine somatotropin (rbST) that bind to the monoclonal antibody 4H12. […]

MAb 4H12 [3] = assay: Inhibition MIPA (microsphere peptide-based immunoassay, indirect competitive format, MAGPIX); type: binding; details: for recognition / cross-reactivity of somatotropins with MAb 4H12: calibration curves up to 100 µg mL^-1, PBST/BSA; for concentration of full inhibition: somatotropin as competitor in PBST/BSA
Method: as §1, §2
Figure 3 Summarized workflow and assay principle of the indirect competitive assay format for somatotropins. In absence of rbST (upper part), MAb 4H12 binds to the peptide-coated microspheres, which enables binding of the PE coupled secondary antibody. The presence of PE results in a high signal in the imaging planar array analyzer. In presence of rbST (lower part), MAb 4H12 binds to the rbST in solution. […] As no PE is present, this will result in a low signal in the imaging planar array analyzer.

MAb 4H12 [4] = assay: Surface plasmon resonance, MAb 4H12 on immobilized rbST or pep-peg; type: binding
Excerpt: (§3) Although the literature often describes the need for spacers in peptide-based biorecognition assays, in our assay format based on the MAb 4H12 and the peptide 115[…]125 biorecognition pair, no spacers were required. […] The presence of peptides on the microspheres was proven by XPS measurements (Supplementary Materials, Figure S2). In addition, the specificity was compared by initial surface plasmon resonance (SPR) experiments, where the pep-peg peptide was coupled to one microfluidic channel and rbST to another channel of the sensor surface. The sensor channels were incubated with two different rbST-induced monoclonal antibodies, MAb 4H12, which specifically binds the peptide 115[…]125 and MAb 5E2, which recognizes another, yet unknown, epitope. […] Next, MAb 4H12 concentrations were optimized for the microsphere peptide-based immunoassay to a dilution factor corresponding to a signal intensity of 1000 MFI for the blank standard (dilution buffer, Supplementary Materials, Table S2). […] The antibody concentrations in combination with the respective microspheres were used to determine the sensitivity of MAb 4H12 for the determination of full rbST-protein in standard solutions, as shown in Figure 4. For bot, rbST-protein and peptide immobilized microspheres, typical dose-response curves were obtained, with IC50 values of, respectively, 0.20 µg mL^−1 and 0.11 µg mL^−1.

MAb 5E2 = assay: Surface plasmon resonance, MAb 5E2 on immobilized rbST or pep-peg; type: binding
Excerpt: as §3

dairy cows = details: according to the manufacturer's protocol; cited from earlier work
Excerpt: RbST is a 191 amino acid long protein hormone that enhances growth and lactating performance in cattle. When administered to dairy cows according to the manufacturer’s protocol, milk production can increase up to 25% [11]. The use of rbST for milk-enhancing properties is approved in several countries, but is banned in the European Union. To control this ban, a strategy to detect rbST misuse in the EU has been described by Smits et al.. The strategy for rbST in serum and milk from dairy cows is based on the digestion of the proteins and detection of rbST-specific peptides formed ...

[5] = microspheres coupled with pep, n = 2

Molecule	binding of MAb 4H12 to coupled microspheres (MAb 4H12 [1])	recognition / cross-reactivity of somatotropins with MAb 4H12 (MAb 4H12 [3]; [5])	concentration of full inhibition (MAb 4H12 [3]; [5])	other results
MRIEGLADLEL [pep-scr, linear peptide scrambled]	did not show any binding			binding of MAb 4H12 to coupled microspheres (MAb 4H12 [1]; listed as scrambled peptide): no binding occurred
DLEEGILALMR [pep]	showed binding			binding between MAb 4H12 and epitope sequence (MAb 4H12 [2]): binding
hST: human Somatotropin from Sigma-Aldrich		not able to recognize and bind		
B1	showed binding			IC50 of rbST in inhibition MIPA, per microsphere set (MAb 4H12 [3]; competitor rbST in PBST/0.1% BSA, label = peptide or protein coupled to the microspheres, MAb 4H12 20, 2, 2, 1, 0.7 ng mL^-1 for pep, pep-peg, pep-aca, pep-K, rbST, 20 min incubation, GAM-PE, MAGPIX, four-parameter fit, n = 3): 0.20 µg/mL; inhibition of MAb 4H12 at 1 µg mL^-1 (MAb 4H12 [3]; somatotropin as competitor at 1 µg mL^-1 in PBST/BSA, microspheres coupled with pep, n = 2): almost completely inhibits; SPR binding of MAb 4H12 (MAb 4H12 [4]): Both MAbs showed binding; SPR binding of MAb 5E2 (MAb 5E2): Both MAbs showed binding; increase of milk production (dairy cows): up to 25%
B2		cross-reactivity was seen	around 100 µg mL^-1	
B3		cross-reactivity was seen	around 100 µg mL^-1	
